Where a SMILES comes first, the peptide text is derived from it. [ ]: non-standard residue; d: D form. The star is where a group is joined. Dolaproine = CO[C@@H]([C@@H]1CCCN1)[C@@H](C)C(=O)O; Dil = CC[C@H](C)[C@H](NC)[C@@H](CC(=O)O)OC; X1 = C[C@@H](N*)[C@@H](O)c1ccccc1; NMeV = CN[C@H](C(=O)O)C(C)C
Legend:
[1] = biological target: T1, endogenous Nectin-4 expressed on the cell membrane of MDA-MB-468 cells (Homo sapiens, UniProt Q96NY8); assay: High content imaging of binding to live MDA-MB-468 cells; conditions: anti-MMAE antibody detection
T1 sequence (Q96NY8 32-510): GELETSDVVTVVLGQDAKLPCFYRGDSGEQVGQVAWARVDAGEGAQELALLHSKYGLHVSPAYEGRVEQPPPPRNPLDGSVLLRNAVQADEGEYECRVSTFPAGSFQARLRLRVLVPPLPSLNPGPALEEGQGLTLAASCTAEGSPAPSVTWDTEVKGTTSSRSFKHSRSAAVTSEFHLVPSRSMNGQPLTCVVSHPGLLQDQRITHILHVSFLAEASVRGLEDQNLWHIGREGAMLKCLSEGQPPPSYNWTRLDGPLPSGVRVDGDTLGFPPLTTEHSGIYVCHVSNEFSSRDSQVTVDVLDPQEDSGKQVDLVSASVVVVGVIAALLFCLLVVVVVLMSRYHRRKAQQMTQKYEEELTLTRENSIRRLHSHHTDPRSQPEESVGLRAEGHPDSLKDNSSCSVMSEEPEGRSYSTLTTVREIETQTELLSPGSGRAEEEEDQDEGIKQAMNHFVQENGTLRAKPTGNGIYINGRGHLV

[2] = tested on: NCI-H292, MDA-MB-468, and NCI-H322 CDX tumors; assay: Tumor MMAE accumulation after BT8009 in CDX models; assay type: in vivo, mouse; conditions: after administration of BT8009, three CDX models, n = 3 per timepoint, LC/MS-MS
[3] = biological target: endogenous Nectin-4 expressed on the cell membrane of MDA-MB-468 cells (human (endogenous in MDA-MB-468)) (UniProt Q96NY8); assay: high content imaging of binding to live cells
hNecl1 (human) = hNecl1 (human) (UniProt Q8N126); assay: SPR
Sequence of hNecl1 (human) (Q8N126 25-398): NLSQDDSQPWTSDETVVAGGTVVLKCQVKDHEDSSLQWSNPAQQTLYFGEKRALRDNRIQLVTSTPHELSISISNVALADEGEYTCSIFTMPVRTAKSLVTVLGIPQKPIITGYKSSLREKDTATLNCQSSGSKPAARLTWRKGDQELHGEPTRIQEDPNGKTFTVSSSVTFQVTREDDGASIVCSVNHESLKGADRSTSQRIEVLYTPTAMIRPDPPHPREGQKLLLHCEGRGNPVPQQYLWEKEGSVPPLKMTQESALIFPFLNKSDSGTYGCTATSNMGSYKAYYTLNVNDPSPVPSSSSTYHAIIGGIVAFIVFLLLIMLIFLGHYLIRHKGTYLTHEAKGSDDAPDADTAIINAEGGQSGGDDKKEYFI

hNecl3 (human) = hNecl3 (human) (UniProt Q8N3J6); assay: SPR
Sequence of hNecl3 (human) (Q8N3J6 25-435): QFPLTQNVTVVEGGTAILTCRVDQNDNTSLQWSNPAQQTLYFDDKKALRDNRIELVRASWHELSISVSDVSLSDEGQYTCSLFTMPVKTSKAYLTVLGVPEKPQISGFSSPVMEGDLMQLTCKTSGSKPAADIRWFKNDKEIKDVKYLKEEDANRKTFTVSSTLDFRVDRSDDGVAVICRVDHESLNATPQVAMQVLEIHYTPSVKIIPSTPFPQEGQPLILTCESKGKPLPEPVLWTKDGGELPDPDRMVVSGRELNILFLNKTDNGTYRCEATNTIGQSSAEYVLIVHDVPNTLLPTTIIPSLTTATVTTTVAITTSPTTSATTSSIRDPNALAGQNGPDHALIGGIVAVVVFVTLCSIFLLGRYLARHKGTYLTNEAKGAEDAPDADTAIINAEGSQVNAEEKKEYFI

hNectin1 (human) = hNectin1 (human) (UniProt Q15223); assay: SPR
Sequence of hNectin1 (human) (Q15223 31-517): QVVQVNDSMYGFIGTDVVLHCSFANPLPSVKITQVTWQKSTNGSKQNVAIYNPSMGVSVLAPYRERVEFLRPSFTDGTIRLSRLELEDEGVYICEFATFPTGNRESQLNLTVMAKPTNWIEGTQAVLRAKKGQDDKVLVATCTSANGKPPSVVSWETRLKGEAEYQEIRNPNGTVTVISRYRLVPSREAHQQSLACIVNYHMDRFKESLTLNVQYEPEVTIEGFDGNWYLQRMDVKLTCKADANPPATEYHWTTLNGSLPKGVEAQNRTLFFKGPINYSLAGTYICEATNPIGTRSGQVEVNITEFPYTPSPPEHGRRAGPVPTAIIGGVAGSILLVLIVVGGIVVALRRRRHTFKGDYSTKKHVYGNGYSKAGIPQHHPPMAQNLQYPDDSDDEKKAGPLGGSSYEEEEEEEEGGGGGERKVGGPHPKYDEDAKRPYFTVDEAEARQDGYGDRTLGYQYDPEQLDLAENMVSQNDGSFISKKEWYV

hNecl4 (human) = hNecl4 (human) (UniProt Q8NFZ8); assay: SPR
Sequence of hNecl4 (human) (Q8NFZ8 21-388): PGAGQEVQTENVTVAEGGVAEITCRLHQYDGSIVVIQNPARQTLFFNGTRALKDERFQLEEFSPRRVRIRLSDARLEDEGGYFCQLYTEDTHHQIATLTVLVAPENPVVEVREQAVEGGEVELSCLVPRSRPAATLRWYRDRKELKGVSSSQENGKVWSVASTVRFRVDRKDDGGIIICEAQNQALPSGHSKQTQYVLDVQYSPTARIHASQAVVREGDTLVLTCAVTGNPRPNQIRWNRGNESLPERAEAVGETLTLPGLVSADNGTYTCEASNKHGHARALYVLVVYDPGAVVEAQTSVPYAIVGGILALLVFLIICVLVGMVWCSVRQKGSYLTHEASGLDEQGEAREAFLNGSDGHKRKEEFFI

hNectin3 (human) = hNectin3 (human) (UniProt Q9NQS3); assay: SPR
Sequence of hNectin3 (human) (Q9NQS3 58-549): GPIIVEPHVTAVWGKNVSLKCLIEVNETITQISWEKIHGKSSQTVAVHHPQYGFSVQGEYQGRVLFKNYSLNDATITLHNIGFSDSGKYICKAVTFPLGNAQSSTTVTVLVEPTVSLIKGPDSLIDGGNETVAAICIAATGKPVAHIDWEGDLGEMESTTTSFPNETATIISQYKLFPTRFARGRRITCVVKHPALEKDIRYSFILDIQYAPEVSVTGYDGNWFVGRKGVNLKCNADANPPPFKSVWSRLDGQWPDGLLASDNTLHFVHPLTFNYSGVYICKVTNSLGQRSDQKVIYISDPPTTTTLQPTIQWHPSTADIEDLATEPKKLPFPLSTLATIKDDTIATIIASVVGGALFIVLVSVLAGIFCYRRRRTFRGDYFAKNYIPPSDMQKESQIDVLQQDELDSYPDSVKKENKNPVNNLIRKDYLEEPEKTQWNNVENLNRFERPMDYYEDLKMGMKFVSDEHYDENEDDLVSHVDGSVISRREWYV

hNecl5 (human) = hNecl5 (human) (UniProt P15151); assay: SPR
Sequence of hNecl5 (human) (P15151 21-417): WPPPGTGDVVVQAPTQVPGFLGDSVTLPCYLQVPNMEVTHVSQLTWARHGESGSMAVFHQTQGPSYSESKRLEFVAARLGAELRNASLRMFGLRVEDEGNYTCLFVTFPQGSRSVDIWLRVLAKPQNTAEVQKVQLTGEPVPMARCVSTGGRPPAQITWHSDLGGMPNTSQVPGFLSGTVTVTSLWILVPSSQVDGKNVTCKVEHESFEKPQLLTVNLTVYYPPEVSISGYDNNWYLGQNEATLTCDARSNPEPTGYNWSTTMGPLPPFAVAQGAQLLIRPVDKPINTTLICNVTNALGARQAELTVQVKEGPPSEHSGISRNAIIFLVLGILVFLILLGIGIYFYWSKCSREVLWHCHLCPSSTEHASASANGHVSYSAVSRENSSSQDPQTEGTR

hNecl2 (human) = hNecl2 (human) (UniProt Q9BY67); assay: SPR
Sequence of hNecl2 (human) (Q9BY67 45-442): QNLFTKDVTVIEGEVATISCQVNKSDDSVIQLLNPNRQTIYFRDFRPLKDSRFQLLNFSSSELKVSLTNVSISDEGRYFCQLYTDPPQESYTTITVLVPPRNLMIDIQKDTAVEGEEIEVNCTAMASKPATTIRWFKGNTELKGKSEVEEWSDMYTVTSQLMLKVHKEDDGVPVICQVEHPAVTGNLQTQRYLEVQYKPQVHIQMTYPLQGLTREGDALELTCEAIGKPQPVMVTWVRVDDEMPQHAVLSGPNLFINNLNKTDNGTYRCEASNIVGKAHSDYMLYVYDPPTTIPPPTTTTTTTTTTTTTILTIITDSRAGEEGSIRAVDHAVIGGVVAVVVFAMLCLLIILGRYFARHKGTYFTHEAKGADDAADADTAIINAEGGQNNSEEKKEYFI

hNectin2 (human) = hNectin2 (human) (UniProt Q92692); assay: SPR
Sequence of hNectin2 (human) (Q92692 32-538): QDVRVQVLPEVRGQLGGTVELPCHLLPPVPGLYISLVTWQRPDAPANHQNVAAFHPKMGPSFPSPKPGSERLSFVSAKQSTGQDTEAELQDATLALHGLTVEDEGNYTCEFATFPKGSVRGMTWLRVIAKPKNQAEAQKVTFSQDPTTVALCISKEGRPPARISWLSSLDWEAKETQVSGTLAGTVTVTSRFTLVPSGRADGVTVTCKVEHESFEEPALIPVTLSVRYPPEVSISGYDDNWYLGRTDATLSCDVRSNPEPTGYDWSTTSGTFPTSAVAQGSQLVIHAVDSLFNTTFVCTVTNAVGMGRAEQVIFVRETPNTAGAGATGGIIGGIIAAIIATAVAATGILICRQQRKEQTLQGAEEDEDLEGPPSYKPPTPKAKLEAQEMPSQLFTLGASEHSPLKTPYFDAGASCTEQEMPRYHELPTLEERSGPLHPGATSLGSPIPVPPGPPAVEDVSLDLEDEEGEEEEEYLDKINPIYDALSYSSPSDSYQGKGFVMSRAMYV

[4] = biological target: human Nectin-4 extra-cellular domain (human) (UniProt Q96NY8); assay: SPR
[5] = tested on: head and neck PDX (HN-13–001); assay: Head and neck PDX model; assay type: in vivo, mouse; conditions: dosed initially at 5 mg/kg (D0, D7) and subsequently 10 mg/kg (D14)
Nectin-4 = assay: SPR of Nectin-4 ADC; assay type: binding; conditions: read-out: KD for Nectin-4, chip coated with ADC, protein passed over it
LU-01–0412 PDX = assay: LU-01–0412 lung PDX model; assay type: in vivo, mouse; conditions: PDX NSCLC, Fig. 6D; rate and degree of regression comparable
[6] = In ICR SCID mouse; ref Enfortumab vedotin data from literature; cited from earlier work
[7] = terminal plasma half-life; ref EV multi-disciplinary review and evaluation; cited from earlier work
[8] = terminal plasma half-life; ref EV multi-disciplinary review and evaluation; cited from earlier work; remark: listed apart in the source

Compound: CC[C@H](C)[C@@H]([C@@H](CC(=O)N1CCC[C@H]1[C@H](OC)[C@@H](C)C(=O)N[C@H](C)[C@@H](O)c1ccccc1)OC)N(C)C(=O)[C@@H](NC(=O)[C@@H](NC)C(C)C)C(C)C [MMAE, mono-methylauristatin E] (H-[NMeV]V[Dil][Dolaproine]-X1)
- affinity for the cells (in words) ([1]; MDA-MB-468 cells, 4°C): no affinity
- time to peak tumor concentrations of total MMAE [2]: 2 to 4 h

Compound: BCY8781 (peptide)
- Kd [3]: > 10 µM

Compound: BT8009 (peptide)
- Kd (hNecl1 (human)): > 20 µM
- Kd (hNecl3 (human)): > 20 µM
- Kd (hNectin1 (human)): > 20 µM
- Kd (hNecl4 (human)): > 20 µM
- Kd (hNectin3 (human)): > 20 µM
- Kd (hNecl5 (human)): > 20 µM
- Kd (hNecl2 (human)): > 20 µM
- Kd (hNectin2 (human)): > 20 µM
- Kd [4]: 0.0025 µM
- Kd [3]: 0.0129 µM

Compound: Nectin-4 ADC: in-house EV analog; enfortumab-sequence antibody conjugated with MC-VC-PAB MMAE, 152kDa, DAR 3.98
- Bmax(RFU) on MDA-MB-468 cells ([1]; 45 minutes at 4°C): 35.2 ± 2.2 RFU
- antitumor response, ADC [5]: minimally reduced tumor growth rate
- Kd (Nectin-4): 0.0012 to 0.0046 µM
- tumor regrowth after treatment cessation (LU-01–0412 PDX): tumor regrowth from drug cessation

Compound: enfortumab vedotin [EV]
- Vdss (L/kg), EV, Mouse [6]: 0.08 L/kg
- EV t1/2 rat [7]: 24 to 31.2 h
- EV t1/2 NHP [8]: 17 to 40.8 h

Source: PMC9940631 (Molecular Cancer Therapeutics, 2022)
